In PMC2645691:
Changes are numbered by the printed parent chain. Each block holds one binder with its values, some of them ahead of it.

Target: FLAG-tagged MAGI-1L (C. elegans)
Assay: co-IP; COS-7 cells cotransfected with FLAG- and GST-tagged proteins; lysis in modified RIPA (50 mM Tris-HCl pH 7.4, 125 mM NaCl, 0.25% NP-40); anti-FLAG beads; blots with anti-FLAG and anti-GST, films quantified against input

percent coimmunoprecipitated: 10%
B1: GST fused to the GLR-2 cytosolic domain (GST::GLR-2) (domain or fragment)
chain: VEFLFRKNKENREKERNRMRSSRPLKPGILASCERAKQKQLQNRRTKSEEVSTPRSTLF

percent coimmunoprecipitated: 0 to 2%
B2: GST fused to the GLR-2 cytosolic domain with a mutated PDZ recognition motif (GST::GLR-2AAA) (domain or fragment)
chain: B1 chain with T57A, L58A, F59A
